According to patent US20250382602:
Changes are numbered by the printed parent chain.

Legend:
Settings in all cases: nanopore translocation, FLO-MIN112; background mutations not given
[1] = molecular target: T1, Dda 1993 361I 361I (Enterobacteria phage T4) (UniProt P32270)
T1 sequence: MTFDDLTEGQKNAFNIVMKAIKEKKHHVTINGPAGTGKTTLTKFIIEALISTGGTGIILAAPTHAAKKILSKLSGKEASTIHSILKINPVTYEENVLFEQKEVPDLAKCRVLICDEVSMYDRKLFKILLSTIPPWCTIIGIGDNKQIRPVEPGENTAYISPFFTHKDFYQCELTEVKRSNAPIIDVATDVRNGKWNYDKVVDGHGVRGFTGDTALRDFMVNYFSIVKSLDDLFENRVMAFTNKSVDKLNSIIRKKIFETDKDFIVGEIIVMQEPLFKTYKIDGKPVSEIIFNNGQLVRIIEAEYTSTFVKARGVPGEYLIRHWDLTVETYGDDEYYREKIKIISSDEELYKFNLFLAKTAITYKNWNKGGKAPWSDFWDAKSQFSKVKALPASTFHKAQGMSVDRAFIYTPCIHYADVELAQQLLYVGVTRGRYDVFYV

[2] = molecular target: T2, Dda 1993 K358E K358E (Enterobacteria phage T4) (UniProt P32270)
T2 sequence: T1 sequence with K358E, I361E

[3] = molecular target: T3, Dda 1993 K358S K358S (Enterobacteria phage T4) (UniProt P32270)
T3 sequence: T1 sequence with K358S, I361E

[4] = molecular target: T4, Dda 1993 354A 354A (Enterobacteria phage T4) (UniProt P32270)
T4 sequence: T1 sequence with L354A, I361E

[5] = molecular target: T5, Dda 1993 361Q 361Q (Enterobacteria phage T4) (UniProt P32270)
T5 sequence: T1 sequence with I361Q

[6] = molecular target: T6, Dda 1993 K358F K358F (Enterobacteria phage T4) (UniProt P32270)
T6 sequence: T1 sequence with K358F, I361E

barcoded 3.6 kb DNA analyte ligated to sequencing Y adaptor
activity (bps speed delta vs control) [1]: 21.6 | activity (bps speed delta vs control) [2]: -7.28 | activity (bps speed delta vs control) [3]: 1.6 | activity (bps speed delta vs control) [4]: 11.3 | activity (bps speed delta vs control) [5]: 13.8 | activity (bps speed delta vs control) [6]: -10.9
